Target: oligomeric amyloid-β 1–42 (UniProt P05067)
Assay: ELISA; solid phase binding assay: 96-well plate coated with 100 nM oAβ1-42 in PBS overnight at 4 °C, blocked with 4% BSA; purified Fc or sTREM2-Fc proteins in PBST with 0.5% BSA, 30 min at 37 °C; detected with biotinylated anti-Fc antibody, avidin-HRP, TMB, read at 620 nm

soluble TREM2-Fc (human TREM2 extracellular domain, amino acids 1–171, fused to the Fc region of human IgG1) (from UniProt Q9NZC2 19-171) (Fc fusion)
Kd: 86.5 nM
